Reference: patent US11390894B2, “Biological processes for the production of aryl sulfates” (CysBio ApS, priority 2014, dated 2022)
Where a chain is given by its changes, count along the chain named.

B1: SULT1A1 Equus caballus: aryl sulfotransferase SULT1A1 Equus caballus (SEQ ID NO: 3) (protein, listed as Equus caballus)
chain: MELIQDTSRPPLKYVKGVPLIKYFAEALGPLQSFQARPDDLLISTYPKSGTTWVSEILDMIYHGGDLEKCRRAPIFIRVPFLEFKAPEIPSGVEVLKDTPAPRLLKTHLPLSLLPQTLLDQKVKVVYLARNAKDVAVSYYHFYRMAKVHPDPGTWDSFLEKFMAGEVSYGSWYKHVQEWWELSHTHPVLYLFYEDMKENPKKEIQKILEFVGRSLPEETLDRIVQHTSFKEMKKNPMANYSTIPCDIMDHNISAFMRKGIAGDWKNTFTVAQNEHFDTDYAEKMAGCKLSFRSEV
B2: SULT1A1 Homo sapiens: aryl sulfotransferase SULT1A1 Homo sapiens (SEQ ID NO: 2) (protein, listed as Homo sapiens)
chain: MELIQDTSRPPLEYVKGVPLIKYFAEALGPLQSFQARPDDLLISTYPKSGTTWVSQILDMIYQGGDLEKCHRAPIFMRVPFLEFKAPGIPSGMETLKDTPAPRLLKTHLPLALLPQTLLDQKVKVVYVARNAKDVAVSYYHFYHMAKVHPEPGTWDSFLEKFMVGEVSYGSWYQHVQEWWELSRTHPVLYLFYEDMKENPKREIQKILEFVGRSLPEETVDFMVQHTSFKEMKKNPMTNYTTVPQEFMDHSISPFMRKGMAGDWKTTFTVAQNERFDADYAEKMAGCSLSFRSEL
B3: SULT1A1 Sus scrofa domesticus: aryl sulfotransferase SULT1A1 Sus scrofa domesticus (SEQ ID NO: 4) (protein, listed as Sus scrofa)
chain: MEPVQDTYRPPLEYVKGVPLIKYFAEALGPLESFQAWPDDVLISTYPKSGTTWVSEILDLIYQGGDLQKCQRAPIFVRVPFLEFKIPGCPTGFELLKDTPAPRLLKTHLPLALLPQTLLDQKVKVVYVARNAKDVAVSYYHFYRMAKVHPNPGTWDSFLEDFMAGEVSYGSWYQHVQEWWELRHTHPVLYLFYEDMKENPKREIQKILEFVGRSLPEETVEDIVQHTSFQEMKNNAMTNYRTLPSDLLDHSISAFMRKGITGDWKSTFTVAQNERFEADYAEKMAGCNLRFRSEL
B4: SULT1E1 Gallus gallus domesticus: aryl sulfotransferase SULT1E1 Gallus gallus domesticus (SEQ ID NO: 6) (protein, listed as Gallus gallus)
chain: MGNDEVIRQDLGCLYDIPLYKCFVAGWPQVEAFQARPDDLLIATYPKSGTTWLSEILDAIYHDGDLEKCRRDAIYNRVPFLEMKAPGILSGVEQLEKIPSPRLVKTHLPVHLLPASFQEKDCKVIYMARNAKDVVISYYYFYQMAKIHPDPGTLSEFLQAFMDGKVAYGSWYKHVKGWWEKRHEKRLLYLFYEDMKKDPRREIQKILQFLGKEVAEETVARILHHTSFQEMKKNPATNYETMPTELMDHSLSPFMRKGISGDWANHFTVAQNERFDQHYQQQMAGSDLCFQMEA
B5: SULT1A1 Canis lupus familiaris: aryl sulfotransferase SULT1A1 Canis lupus familiaris (SEQ ID NO: 5) (protein, listed as Canis lupus)
chain: MEDIPDTSRPPLKYVKGIPLIKYFAEALESLQDFQAQPDDLLISTYPKSGTTWVSEILDMIYQDGDVEKCRRAPVFIRVPFLEFKAPGIPTGLEVLKDTPAPRLIKTHLPLALLPQTLLDQKVKVVYVARNAKDVAVSYYHFYRMAKVHPDPDTWDSFLEKFMAGEVSYGSWYQHVQEWWELSHTHPVLYLFYEDMKENPKREIQKILKFVGRSLPEETVDLIVQHTSFKEMKNNSMANYTTLSPDIMDHSISAFMRKGISGDWKTTFTVAQNERFDADYAKKMEGCGLSFRTQL
B6: SULT1A1 Homo sapiens, CysDNC: SULT1A1 Homo sapiens co-expressed with E. coli cysDNC (ATP sulfurylase and APS kinase) (protein, UniProt P50225 1-295, looked up)
Sulfotransferase 1A1: B2 chain with M223V
modifications: co-expressed with E. coli cysDNC
B7: SULT1A1 Homo sapiens, CysDNCQ: SULT1A1 Homo sapiens co-expressed with E. coli artificial operon cysDNCQ (plus PAP phosphatase cysQ) (protein, UniProt P50225 1-295, looked up)
Sulfotransferase 1A1: B2 chain with M223V
modifications: co-expressed with E. coli cysDNCQ

Tested on: pHCA
Test: Production of zosteric acid in E. coli from pHCA through heterologous expression of sulfotransferases
Type: cell-based, Escherichia coli
Conditions: culture media; M9 glucose, 0.1 mM IPTG, 0.1 mM pHCA, four days of growth
Excerpt: A range of aryl sulfotransferases including SULT1A1 Rattus norvegicus (SEQ ID NO: 1), SULT1A1 Homo sapiens (SEQ ID NO: 2), SULT1A1 Equus caballus (SEQ ID NO: 3), SULT1A1 Sus scrofa domesticus (SEQ ID NO: 4), SULT1A1 Canis lupus familiaris (SEQ ID NO: 5) and SULT1E1 Gallus gallus domesticus (SEQ ID NO: 6) were expressed in Escherichia coli. […]. The nucleotide sequence of the gene encoding SEQ ID NO: 2 was codon optimized for expression in Escherichia coli (GeneArt, Life Technologies) and amplified by PCR using the primers in Table 1. The pETDuet-1 plasmid was digested with restriction endonucleases Ncol and Sal. The PCR products were then individually cloned into the plasmid pETDuet-1 using the Gibson reaction (New England Biolabs). The resulting plasmids were transformed into BL21(DE3)pLysS (Life Technologies).
(§1) The strains were grown in M9 minimal media containing glucose as a carbon source, and 0.1 mM IPTG for induction of gene expression as well as 0.1 mM p-coumaric acid (pHCA). After four days of growth, samples were withdrawn by filtration and analyzed by HPLC.
(§2) The concentration of p-courmaric acid (pHCA) and zosteric acid in the supernatant was quantified by high performance (HPLC) and compared to chemical standards. HPLC was done on a Thermo setup using a HS-F5 column and mobile phases: 5 mM ammonium formate pH 4.0 (A) and acetonitrile (B) at 1.5 mL min-1, using a gradient elution starting at 5% B. From 0.5 min after injection to 7 min, the fraction of B increased linearly from 5% to 60%, and between 9.5 min and 9.6 the fraction of B decreased back to 5%, and remaining there until 12 min. pHCA and zosteric acid were quantified by measuring absorbance at 277 nm.
Zosteric acid was formed with an aryl sulfotransferase heterologously expressed in a microorganism exemplified by E. coli supplied with the substrate.

Molecule	Zosteric acid formed	pHCA remaining
B1	0.01 mM	0.09 mM
B2	0.02 mM	0.08 mM
B3	0.01 mM	0.09 mM
B4	0.01 mM	0.08 mM
B5	0.01 mM	0.10 mM

Tested on: pHCA
Test: Zosteric acid production in E. coli expressing an aryl sulfotransferase in combination with cysDNC and cysQ
Type: cell-based, Escherichia coli
Conditions: induction 0.1 mM IPTG; grown as in Example 1 (0.1 mM pHCA)
Protocol: as §1, §2
The plasmid pRSFDuet-1 (Life Technologies) was digested by the restriction endonucleases NdeI and BgIII. The gene cluster was inserted into the digested plasmid using the Gibson reaction (New England Biolabs). […] For the combined expression of cysDNC and cysQ in an artificial operon, cysDNCQ, the two parts were amplified by PCR from E. coli MG1655 chromosomal DNA using the primers shown in Table 3. Again the parts were inserted into the digested plasmid. […] The plasmid expressing SULT1A1 Homo sapiens (SEQ ID NO: 2) from example 1 was co-transformed into E. coli BL21(DE3)pLysS cells (Life Technologies) with either the plasmid expressing cysDNC or cysDNCQ.
Cells were grown as in Example 1 and the supernatants were analyzed for product formation as in example 1. The strain expressing SULT1A1 in combination with cysDNCQ was also grown without the addition of IPTIG for induction.

Molecule	Zosteric acid formed	pHCA remaining
B2	0.02 mM	0.08 mM
B6	0.06 mM	0.06 mM
B7	0.09 mM	0.04 mM

Same assay, conditions: induction None; grown as in Example 1 (0.1 mM pHCA)

Molecule	pHCA remaining
B7	0.10 mM

Tested on: kaempferol
Test: Percent conversion of substrate by E. coli cells expressing sulfotransferases
Type: cell-based, Escherichia coli
Conditions: 87 μM kaempferol, M9 medium, overnight 37° C.
Protocol: as §2
(§3) Different sulfotransferases were examined for their substrate specificities against three substrates. We tested the sulfotransferases mentioned in example 1, as well as additional ones. The genes encoding these were cloned as described in example 1 using the primers shown in the table below from cDNA libraries of the respective organisms, except for the SULT1A1 from rat (Rattus norvegicus) codon-optimized for E. coli (described above). The resulting vectors were transformed into BL21(DE3)pLysS.
(§4) The resulting strains were grown in M9 medium containing either 100 μM pHCA, 95 μM resveratrol or 87 M kaempferol. The cultures were grown overnight at 37° C., 300 rpm. The following day the supernatants were isolated and examined by HPLC as described in example 1.

Molecule	percent conversion of kaempferol
B1	96%
B2	97%
B3	45%
B4	47%
B5	60%

Tested on: pHCA
Test: as above
Type: cell-based, Escherichia coli
Conditions: 100 μM pHCA, M9 medium, overnight 37° C.
Protocol: as §2, §3, §4

Molecule	percent conversion of pHCA
B1	21%
B2	39%
B3	8%
B4	17%
B5	34%

Tested on: resveratrol
Test: as above
Type: cell-based, Escherichia coli
Conditions: 95 μM resveratrol, M9 medium, overnight 37° C.
Protocol: as §2, §3, §4

Molecule	percent conversion of resveratrol
B1	100%
B2	36%
B3	88%
B4	100%
B5	61%
